Legend:
[1] = biological target: α2 peptide chain of human α2δ-1 with an N-terminal double strep II-tag (α2 NTST) (human); assay: ELISA; ELISA-style ligand binding assay; α2δ-1S NTST (20 or 10 µg/ml) or α2 NTST (10 µg/ml) coated on 96-well plates; soluble TSP at a single concentration of 1,000 nM; TBS pH 7.4 with 1 mM Ca2+; 2 h at RT; detection with TSP-specific antibody/antiserum (Fig. 3A, 3C)
[2] = biological target: soluble C-terminal deletion mutant of human α2δ-1 with an N-terminal double strep II-tag (α2δ-1S NTST) (human); assay: ELISA; ELISA-style titration; α2δ-1S NTST (20 µg/ml) coated; TSP-4 11-1,505 nM; TBS pH 7.4 without Ca2+; RT; apparent KD
[3] = biological target: soluble C-terminal deletion mutant of human α2δ-1 with an N-terminal double strep II-tag (α2δ-1S NTST) (human); assay: ELISA; ELISA-style titration; α2δ-1S NTST (20 µg/ml) coated; TSP-4 11-1,505 nM; TBS pH 7.4 + 1 mM Ca2+; RT; apparent KD

Sequence of thrombospondin-4 (TSP-4), recombinant full-length rat, N-terminal double strep II-tag (P49744 43-980): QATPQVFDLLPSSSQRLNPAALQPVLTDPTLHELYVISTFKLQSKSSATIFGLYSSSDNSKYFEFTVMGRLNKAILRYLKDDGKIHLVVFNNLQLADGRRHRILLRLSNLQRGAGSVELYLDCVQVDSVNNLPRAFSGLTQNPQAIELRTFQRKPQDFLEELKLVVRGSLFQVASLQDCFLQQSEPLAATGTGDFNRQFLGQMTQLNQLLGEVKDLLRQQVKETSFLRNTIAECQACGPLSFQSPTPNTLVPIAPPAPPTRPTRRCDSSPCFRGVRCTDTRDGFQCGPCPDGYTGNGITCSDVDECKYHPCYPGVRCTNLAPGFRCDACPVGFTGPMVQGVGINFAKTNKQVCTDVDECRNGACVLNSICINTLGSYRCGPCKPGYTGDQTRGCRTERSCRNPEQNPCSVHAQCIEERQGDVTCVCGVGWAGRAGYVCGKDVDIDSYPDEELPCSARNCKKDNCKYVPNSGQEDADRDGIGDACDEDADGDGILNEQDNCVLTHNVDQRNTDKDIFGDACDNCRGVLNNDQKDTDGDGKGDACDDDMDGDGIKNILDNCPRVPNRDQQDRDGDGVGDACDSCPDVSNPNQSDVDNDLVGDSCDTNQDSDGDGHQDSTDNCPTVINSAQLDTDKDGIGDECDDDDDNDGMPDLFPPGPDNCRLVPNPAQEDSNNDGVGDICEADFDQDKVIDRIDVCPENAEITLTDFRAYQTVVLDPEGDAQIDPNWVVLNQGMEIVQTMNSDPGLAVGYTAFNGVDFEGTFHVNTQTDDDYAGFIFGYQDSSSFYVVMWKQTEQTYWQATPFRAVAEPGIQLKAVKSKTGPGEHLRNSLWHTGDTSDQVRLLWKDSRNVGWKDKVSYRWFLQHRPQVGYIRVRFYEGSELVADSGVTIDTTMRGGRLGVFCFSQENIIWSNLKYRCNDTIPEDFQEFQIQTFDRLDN

thrombospondin-4 (TSP-4), recombinant full-length rat, N-terminal double strep II-tag (from UniProt P49744 43-980) (natural protein)
fold change of the binding signal against α2δ-1S NTST [1]: 2 fold | Kd [2]: 198 nM | Kd [3]: 153 nM

Source: paper PMC6838084
